From patent publication US9005937B2, “Dual cofactor specific ribitol dehydrogenase and use thereof” (Konkuk University Industrial Cooperation Corp., priority 2011, dated 2015)

Tests used:
[1] = substrate: NC(=O)c1ccc[n+]([C@@H]2O[C@H](COP(=O)(O)OP(=O)(O)OC[C@H]3O[C@@H](n4cnc5c(N)ncnc54)[C@H](OP(=O)(O)O)[C@@H]3O)[C@@H](O)[C@H]2O)c1; experiment: Dynamical parameters to coenzyme, variant S156C; format: biochemical, Zymomonas mobilis; details: other: NADP 0.01 to 3 mM, ribitol, pH 9.0
Text: (§1) There were no differences between the expression amount of various amino acid variants of Ser 156 and the expression amount of wide-type. The dynamical parameter of each of variants was confirmed using the above variants.

[2] = substrate: NC(=O)c1ccc[n+]([C@@H]2O[C@H](COP(=O)(O)OP(=O)(O)OC[C@H]3O[C@@H](n4cnc5c(N)ncnc54)[C@H](OP(=O)(O)O)[C@@H]3O)[C@@H](O)[C@H]2O)c1; experiment: Dynamical parameters to coenzyme, variant S156G; format: biochemical, Zymomonas mobilis; details: other: NADP 0.01 to 3 mM, ribitol, pH 9.0
Text: as §1

[3] = substrate: NC(=O)c1ccc[n+]([C@@H]2O[C@H](COP(=O)(O)OP(=O)(O)OC[C@H]3O[C@@H](n4cnc5c(N)ncnc54)[C@H](OP(=O)(O)O)[C@@H]3O)[C@@H](O)[C@H]2O)c1; experiment: Dynamical parameters to coenzyme, variant S156T; format: biochemical, Zymomonas mobilis; details: other: NADP 0.01 to 3 mM, ribitol, pH 9.0
Text: as §1

[4] = substrate: NC(=O)c1ccc[n+]([C@@H]2O[C@H](COP(=O)(O)OP(=O)(O)OC[C@H]3O[C@@H](n4cnc5c(N)ncnc54)[C@H](OP(=O)(O)O)[C@@H]3O)[C@@H](O)[C@H]2O)c1; experiment: Dynamical parameters to coenzyme, variant S156W; format: biochemical, Zymomonas mobilis; details: other: NADP 0.01 to 3 mM, ribitol, pH 9.0
Text: as §1

[5] = substrate: NC(=O)c1ccc[n+]([C@@H]2O[C@H](COP(=O)(O)OP(=O)(O)OC[C@H]3O[C@@H](n4cnc5c(N)ncnc54)[C@H](OP(=O)(O)O)[C@@H]3O)[C@@H](O)[C@H]2O)c1; experiment: Dynamical parameters to coenzyme, variant S156E; format: biochemical, Zymomonas mobilis; details: other: NADP 0.01 to 3 mM, ribitol, pH 9.0
Text: as §1

[6] = Production of L-ribulose from ribitol with cell bodies of recombinant strains expressing the variants; format: cell-based, E. coli; details: whole cells, 25° C., 6 hours
Protocol: The following experiments were performed in order to produce L-ribulose using a ribitol dehydrogenase variant having double coenzyme specificity. The variants prepared by using the method of Example 5-3 were expressed using the method of Example 2; the cell bodies were only collected by centrifuging (8000×g for 10 minutes) the recombinant strain culture solution; and then the cell bodies were washed with distilled water twice. The final Cell OD was measured and the same amount of cells was used for a production experiment. The ribitol and each of recombinant enzyme variants were subjected to an enzyme reaction in 20 mM of Tris-HCl buffer (pH 9.5) at a temperature of 25° C. for 6 hours.

[7] = substrate: NC(=O)c1ccc[n+]([C@@H]2O[C@H](COP(=O)(O)OP(=O)(O)OC[C@H]3O[C@@H](n4cnc5c(N)ncnc54)[C@H](OP(=O)(O)O)[C@@H]3O)[C@@H](O)[C@H]2O)c1; experiment: Dynamical parameters to coenzyme, variant S156D; format: biochemical, Zymomonas mobilis; details: other: NADP 0.01 to 3 mM, ribitol, pH 9.0
Text: In addition, the present invention provides a ribitol dehydrogenase mutant selected from the group consisting of a) a mutant, in which serine, an amino acid at position 156 of the ribitol dehydrogenase having an amino acid sequence as set forth in SEQ ID NO: 4 is substituted with aspartic acid; and b) a mutant, in which tyrosine, an amino acid at position 51 of the ribitol dehydrogenase having an amino acid sequence as set forth in SEQ ID NO: 4 is substituted with aspartic acid and serine, an amino acid at position 156 is substituted with alanine.
The mutants have preferably amino acid sequences as set forth in SEQ ID NOS: 5 and 6, respectively, but the present invention is not limited thereto.
as §1

[8] = substrate: NC(=O)c1ccc[n+]([C@@H]2O[C@H](COP(=O)(O)OP(=O)(O)OC[C@H]3O[C@@H](n4cnc5c(N)ncnc54)[C@H](OP(=O)(O)O)[C@@H]3O)[C@@H](O)[C@H]2O)c1; experiment: Dynamical parameters to coenzyme, variant S156Y; format: biochemical, Zymomonas mobilis; details: other: NADP 0.01 to 3 mM, ribitol, pH 9.0
Text: as §1

[9] = substrate: NC(=O)c1ccc[n+]([C@@H]2O[C@H](COP(=O)(O)OP(=O)(O)OC[C@H]3O[C@@H](n4cnc5c(N)ncnc54)[C@H](OP(=O)(O)O)[C@@H]3O)[C@@H](O)[C@H]2O)c1; experiment: Dynamical parameters to coenzyme, variant S156A; format: biochemical, Zymomonas mobilis; details: other: NADP 0.01 to 3 mM, ribitol, pH 9.0
Text: as §1

B1: Zymomonas mobilis ribitol dehydrogenase (SEQ ID NO: 4) variant S156C (Zymomonas mobilis subsp. mobilis ZM4 = ATCC 31821; S229C) (protein)
chain: MIPRPDHGEKSYRGSGKLQGRKALITGGDSGIGRATAIAYAREGADIVINYLPQEEPDAREVVALLQGEGHKVFALPGDLRNENFCVQLVQEASKRLGGLDILANIAGHQHYNESILTLSTADFDDTLKTNVYAMFWLCKEALKIMPAGSAIVNTCSTQGYRPSAILLDYATSKAAIANFTRALAIQLAPRGIRVNAVAPGPFWTPLQVSGGQPASAYSQFGANTPVKRPGQPVEIAPVYVFLACAENSYVTGEVYGVTGCAQIF
[1]
  Km: 170 ± 20 µM
  kcat: 2.05 ± 0.10 s⁻¹
  kcat/Km: 12100 M⁻¹ s⁻¹

B2: Zymomonas mobilis ribitol dehydrogenase (SEQ ID NO: 4) variant S156G (Zymomonas mobilis subsp. mobilis ZM4 = ATCC 31821; S229G) (protein)
chain: MIPRPDHGEKSYRGSGKLQGRKALITGGDSGIGRATAIAYAREGADIVINYLPQEEPDAREVVALLQGEGHKVFALPGDLRNENFCVQLVQEASKRLGGLDILANIAGHQHYNESILTLSTADFDDTLKTNVYAMFWLCKEALKIMPAGSAIVNTGSTQGYRPSAILLDYATSKAAIANFTRALAIQLAPRGIRVNAVAPGPFWTPLQVSGGQPASAYSQFGANTPVKRPGQPVEIAPVYVFLACAENSYVTGEVYGVTGCAQIF
[2]
  Km: 340 ± 70 µM
  kcat: 0.72 ± 0.08 s⁻¹
  kcat/Km: 2120 M⁻¹ s⁻¹

B3: Zymomonas mobilis ribitol dehydrogenase (SEQ ID NO: 4) variant S156T (Zymomonas mobilis subsp. mobilis ZM4 = ATCC 31821; S229T) (protein)
chain: MIPRPDHGEKSYRGSGKLQGRKALITGGDSGIGRATAIAYAREGADIVINYLPQEEPDAREVVALLQGEGHKVFALPGDLRNENFCVQLVQEASKRLGGLDILANIAGHQHYNESILTLSTADFDDTLKTNVYAMFWLCKEALKIMPAGSAIVNTTSTQGYRPSAILLDYATSKAAIANFTRALAIQLAPRGIRVNAVAPGPFWTPLQVSGGQPASAYSQFGANTPVKRPGQPVEIAPVYVFLACAENSYVTGEVYGVTGCAQIF
[3]
  Km: 220 ± 30 µM
  kcat: 1.64 ± 0.22 s⁻¹
  kcat/Km: 7450 M⁻¹ s⁻¹

B4: Zymomonas mobilis ribitol dehydrogenase (SEQ ID NO: 4) variant S156W (Zymomonas mobilis subsp. mobilis ZM4 = ATCC 31821; S229W) (protein)
chain: MIPRPDHGEKSYRGSGKLQGRKALITGGDSGIGRATAIAYAREGADIVINYLPQEEPDAREVVALLQGEGHKVFALPGDLRNENFCVQLVQEASKRLGGLDILANIAGHQHYNESILTLSTADFDDTLKTNVYAMFWLCKEALKIMPAGSAIVNTWSTQGYRPSAILLDYATSKAAIANFTRALAIQLAPRGIRVNAVAPGPFWTPLQVSGGQPASAYSQFGANTPVKRPGQPVEIAPVYVFLACAENSYVTGEVYGVTGCAQIF
[4]
  Km: 210 ± 30 µM
  kcat: 2.05 ± 0.11 s⁻¹
  kcat/Km: 9760 M⁻¹ s⁻¹

B5: Zymomonas mobilis ribitol dehydrogenase (SEQ ID NO: 4) variant S156E (Zymomonas mobilis subsp. mobilis ZM4 = ATCC 31821; S229E) (protein)
chain: MIPRPDHGEKSYRGSGKLQGRKALITGGDSGIGRATAIAYAREGADIVINYLPQEEPDAREVVALLQGEGHKVFALPGDLRNENFCVQLVQEASKRLGGLDILANIAGHQHYNESILTLSTADFDDTLKTNVYAMFWLCKEALKIMPAGSAIVNTESTQGYRPSAILLDYATSKAAIANFTRALAIQLAPRGIRVNAVAPGPFWTPLQVSGGQPASAYSQFGANTPVKRPGQPVEIAPVYVFLACAENSYVTGEVYGVTGCAQIF
[5]
  Km: 350 ± 40 µM
  kcat: 2.39 ± 0.15 s⁻¹
  kcat/Km: 6830 M⁻¹ s⁻¹

B6: S156D: mutant in which serine at position 156 of SEQ ID NO: 4 is substituted with aspartic acid (SEQ ID NO: 5) (protein)
chain: MIPRPDHGEKSYRGSGKLQGRKALITGGDSGIGRATAIAYAREGADIVINYLPQEEPDAREVVALLQGEGHKVFALPGDLRNENFCVQLVQEASKRLGGLDILANIAGHQHYNESILTLSTADFDDTLKTNVYAMFWLCKEALKIMPAGSAIVNTDSTQGYRPSAILLDYATSKAAIANFTRALAIQLAPRGIRVNAVAPGPFWTPLQVSGGQPASAYSQFGANTPVKRPGQPVEIAPVYVFLACAEDSYVTGEVYGVTGCAQIF
modifications: mutant
[6]; 20 mM Tris-HCl buffer pH 9.5, HPLC
  L-ribulose produced, concentration: 1.21 g/L
[6]; pH 9.5
  conversion rate of L-ribulose in the whole cell level compared with wild-type (in words): higher

B7: Zymomonas mobilis ribitol dehydrogenase (SEQ ID NO: 4) variant S156D, SEQ ID NO: 5 (Zymomonas mobilis subsp. mobilis ZM4 = ATCC 31821; N321D/S229D) (protein)
chain: MIPRPDHGEKSYRGSGKLQGRKALITGGDSGIGRATAIAYAREGADIVINYLPQEEPDAREVVALLQGEGHKVFALPGDLRNENFCVQLVQEASKRLGGLDILANIAGHQHYNESILTLSTADFDDTLKTNVYAMFWLCKEALKIMPAGSAIVNTDSTQGYRPSAILLDYATSKAAIANFTRALAIQLAPRGIRVNAVAPGPFWTPLQVSGGQPASAYSQFGANTPVKRPGQPVEIAPVYVFLACAEDSYVTGEVYGVTGCAQIF
[7]
  Km: 300 ± 30 µM
  kcat: 2.46 ± 0.21 s⁻¹
  kcat/Km: 8200 M⁻¹ s⁻¹

B8: Zymomonas mobilis ribitol dehydrogenase (SEQ ID NO: 4) variant S156Y (Zymomonas mobilis subsp. mobilis ZM4 = ATCC 31821; S229Y) (protein)
chain: MIPRPDHGEKSYRGSGKLQGRKALITGGDSGIGRATAIAYAREGADIVINYLPQEEPDAREVVALLQGEGHKVFALPGDLRNENFCVQLVQEASKRLGGLDILANIAGHQHYNESILTLSTADFDDTLKTNVYAMFWLCKEALKIMPAGSAIVNTYSTQGYRPSAILLDYATSKAAIANFTRALAIQLAPRGIRVNAVAPGPFWTPLQVSGGQPASAYSQFGANTPVKRPGQPVEIAPVYVFLACAENSYVTGEVYGVTGCAQIF
[8]
  Km: 230 ± 130 µM
  kcat: 1.42 ± 0.16 s⁻¹
  kcat/Km: 6170 M⁻¹ s⁻¹

B9: Zymomonas mobilis ribitol dehydrogenase (SEQ ID NO: 4) variant S156A (Zymomonas mobilis subsp. mobilis ZM4 = ATCC 31821; S229A) (protein)
chain: MIPRPDHGEKSYRGSGKLQGRKALITGGDSGIGRATAIAYAREGADIVINYLPQEEPDAREVVALLQGEGHKVFALPGDLRNENFCVQLVQEASKRLGGLDILANIAGHQHYNESILTLSTADFDDTLKTNVYAMFWLCKEALKIMPAGSAIVNTASTQGYRPSAILLDYATSKAAIANFTRALAIQLAPRGIRVNAVAPGPFWTPLQVSGGQPASAYSQFGANTPVKRPGQPVEIAPVYVFLACAENSYVTGEVYGVTGCAQIF
[9]
  Km: 390 ± 130 µM
  kcat: 1.19 ± 0.07 s⁻¹
  kcat/Km: 3050 M⁻¹ s⁻¹
